Test results: US20120208753A1 (published 2012)

Molecular target: the molecule itself
Assay: non-reducing PAGE of protein isolated from CHO cells

B1: active domain of GDF-6 fused to a FLAG tag (SEQ ID NO: 25) (ligand)
chain: MDYKDDDDKENLYFQGTAFASRHGKRHGKKSRLRCSKKPLHVNFKELGWDDWIIAPLEYEAYHCEGVCDFPLRSHLEPTNHAIIQTLMNSMDPGSTPPSCCVPTKLTPISILYIDAGNNVVYKQYEDMVVESCGCR
notes: It was secreted by CHO cells; the Western blot was run under reducing conditions; also called active fragment of GDF-6; active fragment
B1: binds.
